According to patent US20040082762A1 (Janssen / Centocor, published 2004):

B1: chimeric 12B4 (antibody, V domains shown)
VH: QVTLKESGPGILQPSQTLSLTCSFSGFSLSTNGMGVSWIRQPSGKGLEWLAHIYWDEDKRYNPSLKSRLTISKDTSNNQVFLKITNVDTADTATYYCARRRIIYDVEDYFDYWGQGTTLTVSS
VL: DVLMTQTPLSLPVSLGDQASISCRSSQNIVHSNGNTYLEWYLQKPGQSPKLLIYKVSNRFSGVPDRFSGSGSGTDFTLKISRVEAEDLGVYYCFQGSHVPLTFGAGTKLELK
notes: Murine 12B4 variable regions joined to human gamma 1 and C kappa constant regions (vectors pCMV-hγ1 and pCMV-hκ1), expressed in COS cells; also called chimeric 12B4 antibody
B2: murine 12B4 (antibody, V domains shown)
VH: B1 VH
VL: B1 VL
notes: Mouse monoclonal antibody of the IgG2a isotype; also called mAb 12B4; mouse 12B4

Biological target: T1, Aβ 1-42 peptide (human, UniProt P05067 672-713)
T1 construct: domain: Aβ 1-42; also called Aβ42
T1 sequence (P05067 672-713 limits assumed): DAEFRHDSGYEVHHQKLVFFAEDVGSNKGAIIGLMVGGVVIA
Assay: competitive ELISA on Aβ1-42; labelled antibody biotinylated murine 12B4

Row | Binder | binding result
1 | B1 | binds
2 | B2 | binds
